Tests used:
[1] = tested on: Coleus forskohlii CfTPS2 and Salvia sclarea SsSCS; assay: coupled class II / class I in vitro assay with methyl-GGDP (C21) substrate; assay type: biochemical; details: CfTPS2 and SsSCS used together; product structure similar to sclareol (FIG. 10)
Protocol: A typical high-throughput in vitro diTPS assay in lml contained 5 μg substrate, 200 μg purified enzyme (class II plus class I for labdanoid-type diterpenes, or class I for irregular diterpenes), and 10mM buffer with magnesium. Reactions are carried out for 1 hour at 16° C., followed by vortexing with an equal volume of hexane to extract the products into the organic phase, prior to removal for GC/MS analysis.
Reactions leading to novel compounds can be scaled up for structural elucidation. The scale-up procedure involved the same composition. However, in coupled assays of pairs of diTPS, the class II enzyme may be pre-incubated with substrate for two hours, before adding the class I diTPS.
Enzymes Coleus forskohlii CfTPS2 (SEQ ID NO:69) and Salvia sclarea SsSCS (SEQ ID NO:61) were coupled in an in vitro assay to ascertain whether the synthetic unnatural methyl-GGDP (C21) substrate can efficiently yield the corresponding C21 methyl-diterpene.

[2] = tested on: DgTPS1 (casbene synthase); assay: in vitro diTPS assay: casbene synthase DgTPS1 reacted with unGGPP, products by GC/MS; assay type: biochemical, Daphne genkwa; details: product mass consistent with a methyl-derivative of casbene
Protocol: A conserved irregular, macrocyclic structure is consistent with the fragmentation pattern of the major fragments of casbene (FIG. 5C-5D).
To assess substrate tolerance of class II diTPS, substrates are screened against a panel of twenty-five enzymes. Recombinant diTPS were expressed heterologously in E. coli, purified, and reconstituted in in vitro assays with the substrate to be tested. The products from the enzymatic action on the substrate were analyzed structural elucidation and downstream functionalization.
In particular, pET28b+plasmids containing N-terminally truncated diTPS variants (having the plastidial targeting signal removed to generate pseudomature enzymes) are transformed into E. coli BL-21DE3-C41 OverExpress cells. Cultures are grown at 37° C. and 180 rpm until the optical density at 600 nm reached 0.3 to 0.4. Cultures are cooled to 16° C., and expression is induced at an optical density at 600 nm of approximately 0.6 with 0.2 mM isopropylthiogalactoside. Cells are collected and lysed before purification of the His6-tagged enzymes with Ni-NTA columns.
A typical high-throughput in vitro diTPS assay in lml contained 5 μg substrate, 200 μg purified enzyme (class II plus class I for labdanoid-type diterpenes, or class I for irregular diterpenes), and 10mM buffer with magnesium. […]

[3] = tested on: class I labdane-type diTPS; assay: class I labdane-type diTPS and tested substrates converted (Table 2); assay type: biochemical; details: decalin-core diphosphate substrates that the enzyme converted, enzymes functionally expressed
From the text: Instead of accepting the acyclic GGPP, class I enzymes can use structurally diverse decalin-core diphosphate intermediates generated by class II enzymes. At this stage, additional cyclizations, double-bond-, hydride and alkyl shifts can occur, followed by either proton abstraction or quenching of the final carbocation through a water molecule.
All enzymes in Table 2 were functionally expressed. Microbial sequences were expressed as synthetic variants, expression optimized for E. coli. See also FIG. 7.

Molecule: CC(C)=CCC/C(C)=C/CC/C(C)=C/CC/C(C)=C(\C)COP(=O)(O)OP(=O)(O)O [methyl-GGDP (C21)]
- product formation in coupled enzyme assay [1]: new methyl-diterpene product

Molecule: CC(C)=CCC/C(C)=C/CC/C(C)=C/CC/C(C)=C(\C)COP(=O)(O)OP(=O)(O)O [unGGPP]
- conversion of substrate to product, detected by gas chromatography / GC-MS [2]: novel product with a shifted retention time

B1: ArTPS3 (protein)
chain: MSLSFTIKVTPFSGQRVHSSTESFPIQQFPTITTKSAMAVKCSSLSTATVSFQDFVGKIRDTINGKVDNSPAATTIHPADIPSNLCVVDTLQRLGVDRYFQSEIDSVLNDTYRFWQQKGEDIFTDVACRAMAFRLLRVKGYEVSSDELASYAEQEHVNLQPSDITTVIELYRASQTRLYEDEGNLEKLHTWTSNFLKQQLQSETISDEKLHKQVEYYLKNYHGILDRAGVRQSLDLYDINQYQNLKSTDRFPTLSNEDLLEFAKQDFNFCQAQHQKELQQLQRWYADCKLDTLTYGRDVVRVASFLTAAIFGEPEFSDARLAFAKHIILVTRIDDFFDHGGSIEESYKILDLVKEWEDKPAEEYPSKEVEILFTAVYNTVNDLAEMAYIEQGRSIKPLLIKLWVEILTSFKKELDSWTEDTELTLEEYLASSWVSIGCRICSLNSLQFLGITLSEEMLSSEECMELCRHVSSVDRLLNDVQTFEKERLENTINSVSLQLAEAQREGRTITEEEAMSKIKDLADYHRRQLMQMVYKDGTIFPRQCKDVFLRVCRIGYYLYASGDEFTTPQQMMGDMKSLVYEPLNTSSS
modifications: Ajuga reptans
- Substrate (tested substrates converted) [3]: PgPP, (+)-CPP, (+)-8-LPP, ent-CPP

B2: SsSCS (protein, listed as Salvia sclarea)
chain: MSLAFNVGVTPFSGQRVGSRKEKFPVQGFPVTTPNRSRLIVNCSLTTIDFMAKMKENFKREDDKFPTTTTLRSEDIPSNLCIIDTLQRLGVDQFFQYEINTILDNTFRLWQEKHKVIYGNVTTHAMAFRLLRVKGYEVSSEELAPYGNQEAVSQQTNDLPMIIELYRAANERIYEEERSLEKILAWTTIFLNKQVQDNSIPDKKLHKLVEFYLRNYKGITIRLGARRNLELYDMTYYQALKSTNRFSNLCNEDFLVFAKQDFDIHEAQNQKGLQQLQRWYADCRLDTLNFGRDVVIIANYLASLIIGDHAFDYVRLAFAKTSVLVTIMDDFFDCHGSSQECDKIIELVKEWKENPDAEYGSEELEILFMALYNTVNELAERARVEQGRSVKEFLVKLWVEILSAFKIELDTWSNGTQQSFDEYISSSWLSNGSRLTGLLTMQFVGVKLSDEMLMSEECTDLARHVCMVGRLLNDVCSSEREREENIAGKSYSILLATEKDGRKVSEDEAIAEINEMVEYHWRKVLQIVYKKESILPRRCKDVFLEMAKGTFYAYGINDELTSPQQSKEDMKSFVF
- Substrate (tested substrates converted) [3]: ent-, syn-, (+)-CPP, (+)-8-LPP, ent-8-LPP, KPP, 9-LPP

B3: KgTPS2 (protein, listed as Kitasatospora griseola)
chain: MPDAIEFEHEGRRNPNSAEAESAYSSIIAALDLQESDYAVISGHSRIVGAAALVYPDADAETLLAASLWTACLIVNDDRWDYVQEDGGRLAPGEWFDGVTEVVDTWRTAGPRLPDPFFELVRTTMSRLDAALGAEAADEIGHEIKRAITAMKWEGVWNEYTKKTSLATYLSFRRGYCTMDVQVVLDKWINGGRSFAALRDDPVRRAIDDVVVRFGCLSNDYYSWGREKKAVDKSNAVRILMDHAGYDESTALAHVRDDCVQAITDLDCIEESIKRSGHLGSHAQELLDYLACHRPLIYAAATWPTETNRYR
- Substrate (tested substrates converted) [3]: ent-, syn-, (+)-CPP, (+)-8-LPP, ent-8-LPP, KPP, 9-LPP
